Experimental data reported in a protein production outcome set (Wang et al. 2014).

Experiment: label from the status in PepcDB records

Sequence | protein production
MAEKLLHTAESDAGIGSWVLHMESGRLEWSQAVHDIFGTDSATFDATEDAYFQRVHPDDRARVRRELDRHVLGDRPFDVEYRIVRPDGQVRELLERNHIQRQASGQVDHLWGTVIDMTEHKQ | not failed
MAEKNAYTVAQLADEYFERMIAGRWKHPNIVRSRIEKDIKPAIGSLKVEDVKPRHIDDVLKAVMKRGAPSIANDTLRWLKRMFNYAIKRHIIEYNPAAAFDPGDAGGKEKSLEHHHHHH | not failed
MAEKSCSLTEFVGTAIGDTLGLVIANVDTALLDAMKLEKRYRSIGILGARTGAGPHIMAADEAVKATNTEVVSIELPRDTKGGAGHGSLIILGGNDVSDVKRGIEVALKELDRTFGDVYGNEAGHIELQYTARASYALEKAFGAPIGRACGIIVGAPASVGVLMADTALKSANVEVVAYSSPAHGTSFSNEAILVISGDSGAVRQAVTSAREIGKTVLATLGSEPKNDRPSYI | not failed
MAENAWVRVCALQELPELGARVLDVEGLPPIAIFRTASDQVFALRDRCPHKGGPLSQGIVAGETVTCPLHGWAIALQSGQACAPDVGCAPRYPVKVEAGAVWIVLQPVLQADAVAEPAALEHHHHHH | failed
MAENKLGRDIPRKYANQYGVFEGELAHIKSYKESSRQVKPVKPSDDKLLSSIHEAIEKTRLKDGMTISFHHHFREGDYVMNMVLDEIAKMGIKDISIAPSSIANVHEPLIDHIKNGVVTNITSSGLRDKVGAAISEGIMENPVIIRSHGGRARAIATDDIHIDVAFLGAPSSDAYGNANGTRGKTTCGSLGYAMIDAKYADQVVIVTDTLVPYPNTPISIPQTDVDYIVVVDAIGDPEGIAKGATRYTKNPKELLIAEYAAKVITSSPYYKEGFSFQTGTGGASLAVTRFMREQMIKDDIKANFALGGITNAMVELLEEGLVDKILDVQDFDHPSAVSLDRNAEKHYEIDANMYASPLSKGSVINQLDICVLSALEVDTNFNVNVMTGSDGVIRGASGGHCDTAFAAKMSLVISPLVRGRIPTFVDKVNTVITPGTSVDVVVTEVGIAINPNRPDLIEYFKDLKVPQLTIEELKEKAYAIVGNPQPIQYGDKIVALIEYRDGSLIDVVRNVLEHHHHHH | not failed
MAEPGGHEGPASTQRAKVCETHTAMVFFVEDRVYKRKKPVDLGFLDYTTRSSRRAVCEREIELNRRFAPDVYLGLGELRTPGEQEAEPLVVMRRMPDDRRLSHLVRTGAPVADDLRAVARHLAAWHSAAPRGPAIAEQGTRDALAARWEASFTQVDVLAAKGPTRDEAGEVERLVRRYLAGRKPLFGLRIEQGRVLDGHGDLLADDVFCLGDGPRILDCLEFDDALRYVDGLDDAAFLAMDLESLGAPESAAFFLAQYGEYSGDPAPPSLWHHYVAYRAFVRAKVSLIQARQGAPGAHATARRLVRMALRHLRASAVGLTLVAGLPGTGKSTLSGALADRLGAVLLSSDRLRKEMAGLSPQQTASADYGEGLYTPEWTARTYAELLDRAAALLALGESVVLDATWIDSAQREAARHTAESAGADLVALHCHVPDDVTAARLSTRAPGASDADLGVAEAMAAEEQPWSGAVGVDTGGSLEAAVGQALAAVRPWGSDQAKVFRRPYMEPDLEHHHHHH | failed
MAESPTEEAATATAGAGAAGPGSSGVAGVVGVSGSGGGFGPPFLPDVWAAAAAAGGAGGPGSGLAPLPGLPPSAAAHGAALLSHWDPTLSSDWDGERTAPQCLLRIKRDIMSIYKEPPPGMFVVPDTVDMTKIHALITGPFDTPYEGGFFLFVFRCPPDYPIHPPRVKLMTTGNNTVRFNPNFYRNGKVCLSILGTWTGPAWSPAQSISSVLISIQSLMTENPYHNEPGFEQERHPGDSKNYNECIRHETIRVAVCDMMEGKCPCPEPLRGVMEKSFLEYYDFYEVACKDRLHLQGQTMQDPFGEKRGHFDYQSLLMRLGLIRQKVLERLHNENAEMDSDSSSSGTETDLHGSLRV | failed
MAESTQMEVETATEGTVPLPPKPTFKPLKAHEMSDGKVQFRKIAVPPNRYSPLKKAWLDIYTPIYDQMKVDIRMNLKARKVELKTRADTPDISNLQKSADFVHAFMLGFDIPDAISLLRMDELYVESFEIKDVKTLKGEHLSRAIGRLSGKGGKTKFAIENSTKTRIVIADTRIHILGAFSNIKVARSSLCSLIMGSPAGKVYSKLRSVSARLNE | failed
MAETNTATSAVNAQITDAVTQVNTKVVGETPAMAMGNLLMSTSHALSNTAHNATAAQQQGQITMQAATVQGVNSLMSVSSAVIGRSSEEVIEKG | failed
MAFAEGALDALKVAFQEGARSLVLLSPVLFRDALLSARLGALRFGLERGGVEGFARVGRALFFGALSAGSEEVYEAWKEGLSEAGLWRWLGRLEALADERRWLRGTAARVLVVQGALDAFTPPLHGAKVADFAKGEALRFVVDEAGHLVPWEAQEEVRDLVADFLLGEGFRPLPGGLAL | failed
MAFASLFTLPDYIAAVLDDVALMTKAAAKKTAGVAGDDLAPNANRVTGVSAERELPIVWPVAKGSFANKPVLVSAALLLSAFLPQLITPLLTAGGIYLCFEGVEKLLHKFLHRHDAHDDGGETAVNEQAKIKGAIRTDFILSAEIIIIALCVVEQYSLMTRSLVMAAIGIGMTVLVYGIVAVIVKLDDLGMLLMRRPQPRPFARFPARATLERWLDRVFRQPRCRAAFRFDCLRPALSLMNRFGRH | failed
MAFLTNDDVVLICDKNYDCPTKIQSVRQKDTTCVAFRPWSQTCEFAVGCAAGICLWSDSRRLNANRNIRRMMGTHHLQVLQDKGHNYVTSMQWNEDGTILVTAAFGSSHIMLWEPDCQQKIRLIPNPKSLGSFSLLRFSPDFHVLFCASCDAGASLCQLNRSKWKLKQILGQQRIQSAVWTTCGSTLLYACYGSTRVYSCTSDGEDSVFLRPQSIWRVQLIMDLQLVTTCAGQRLCCGEPQCLAMDPLGIYMASIFKEQSFVLLCILHTSRWGNVKLLPVEFIYCDMDGDQYPAYISFGVLKAEIRFLIIAWNTGHFQRYDITAQCFRDAQLYHNIN | failed
MAFVVNGNEYNLAYYLTDEIYPKWATFIQSISLPQDEKASLFATNQEACRKDVERAFGVLQARFAIVKHPALIWDKIKIGNIMRACIILHNMIVEDERDGYTQYDVSDFAHPESASSSQVDFTYSTDMPSNLGNMMATRTRLRDRTKHEHLKADLVEHIWQKFGPIQA | failed
MAGAITHDHAAAAQGRQGGPLIVTEDVELLDDLLRLCAAAGARPEVHHTVPDGRGTWEAAPLVLVGDDAARRVRGAARRRGVVLVGRDQDDSGVWRRAVEIGADHVLLLPDGEQWLVDRIADVAEGVGRPALTVGVIGGRGGAGASTLACALAVTSARQGRRTLLVDADPLGGGLDVLLGGETAEGLRWPAFAASRGRVGGGALEESLPELHALRVLSWDRGDAVAVPPQAVRAVLAAARRRGGAVVVDLPRRVDEGAAEALAQVDLGVLVVPAELRAIAAAARVASAAGMVLGDLRVAVRGPYAPGLDDREVARLLGLPLLGEVPAEPPVPDGGVPPGGAARGPLARFCAVFWDRALVEAGGVLEHHHHHH | failed
MAGATDQRRQEVLRAIVADYIASQEPVGSKALLERHNLKVSSATIRNDMAVLESEGYIVQQHASSGRIPTEKAYRTFVDSINDIKPLSVAERRAILGFLERGVDLEDVLKRSVQLLSQLTRQAAVIQLPNLNVSRVKHCE | failed
MAGEFRLLSHLCSRGSKVGELAQDTRTSLKTSWYLLGPAFVAAIAYVDPGNVAANVSSGAQFGYLLLWVIVAANVMAALVQYLSAKLGLVTGRSLPEAIGKRMGRPARLAYWAQAEIVAMATDVAEVIGGAIALRIMFNLPLPIGGIITGVVSLLLLTIQDRRGQRLFERVITALLLVIAIGFTASFFVVTPPPNAVLGGLAPRFQGTESVLLAAAIMGATVMPHAVYLHSGLARDRHGHPDPGPQRRRLLRVTRWDVGLAMLIAGGVNAAMLLVAALNMRGRGDTASIEGAYHAVHDTLGATIAVLFAVGLLASGLASSSVGAYAGAMIMQGLLHWSVPMLVRRLITLGPALAILTLGFDPTRTLVLSQVVLSFGIPFAVLPLVKLTGSPAVMGGDTNHRATTWVGWVVAVMVSLLNVMLIYLTVTG | failed
MAGGPPNTKAEMEMSLAEELNHGRQGENQEHLVIAEMMELGSRSRGASQKKQKLEQKAAGSASAKRVWNMTATRPKKMGSQLPKPRMLRESGHGDAHLQEYAGNFQGIRFHYDRNPGTDAVAQTSLEEFNVLEMEVMRRQLYAVNRRLRALEEQGATWRHRETLIIAVLVSASIANLWLWMNQ | failed
MAGKQQERVNVEGHELTLTNLNKIIYPETGTTKAEVLEYYAAVAPFLIPAAANRPVTRKRWVNGVGTAENPGQVFFQKNLEDSAPKWIPRAAIQHSDHTNVYPMVNNLATLTWMAQIASLEIHVPQWQVDPSGKPLRPDRFVLDLDPGPGAGLPECVEVAKLARSILQDMGMDPVPVTSGSKGIHLYTGLDGTLKSEQVSAFAKELARALESDHPELVVSDMKKSLRHGKVLVDWSQNSGNKTTIVPYSLRGKAHPTVAAPRTWRELSSPSLEHLDYVAVMKRVKTGKDHFAPISERHLPPHGEDENDDDGTAGSSSGTGRSRERVVTVENRLAKYVGMRDPGKTPEPFPSSSAVSASPQSAGSSSDQPKPGDPPPPGGIFVIQEHHARRYHLDLRLEHHGVLASWALPRGIPETPDRNNLAVHTEDHPMEYANFAGVIPKGEYGAGTMTIWDRGEYTCEKWRDGKEVIATLTGEPGGGLGGTKRFALINTGQNWLIHLMKEQPGGRRGTQPAANAAAPKSAPAQPQPQPMPNYSPMLATSGTTADLRGDDWLYELKWDGIRAIITGTESRIRLMSRNGNDLTAAYPELTDRACWPDGDFVADGEIVALGKGSRPDFGRLQLRMNLVKAADIERARATVPVQLMLFDLLYDDGTDLSGLPFHERRERLSGFAERWRVGCPLHLSAVLDHDVEDLMTSAAELGLEGVMAKKADSRYVIGRRSRSWIKLKLEQSQEVVVGGWRPGAGARAGTFGALLLGIPDGDKLHYVGRVGSGFKDWQLRDIMEKLEPLAIVESPFADIPREDAAGATWVSPELVAEVTFGEWTGPGRLRHPVWRGWRPDKSAGEVTLAGS | failed
MAGLAISPPLGLSFSSRTRNPKPTSFLSHNQRNPIRRIVSALQSPYGDSLKAGLSSNVSGSPIKIDNKAPRFGVIEAKKGNPPVMPSVMTPGGPLDLSSVLFRNRIIFIGQPINAQVAQRVISQLVTLASIDDKSDILMYLNCPGGSTYSVLAIYDCMSWIKPKVGTVAFGVAASQGALLLAGGEKGMRYAMPNTRVMIHQPQTGCGGHVEDVRRQVNEAIEARQKIDRMYAAFTGQPLEKVQQYTERDRFLSASEALEFGLIDGLLETEY | not failed
MAGLFTPKDAAMNIAIVTINQENAAIASWLAAQDFSGCTLAHWQIEPQPVVAEQVLDAMVEQWQRTPADVVLFPPGTFGDELSTRLAWRLHGASICQVTSLDIPTVSMRKSHWGNALTATLQTEKRPLCLSLARQAGAAKNATLPSGMQQLNIVPGALPDWLVSTEDLKNVSRDPLAEARRVLVVGQGGEADNQEIVMLAEKLGAEVGYSRARVMNGGVDAEKVIGISGHLLAPEVCIVVGASGAAALMAGVRNSKFMVAINHDASAAVFSQADIGVVDDWKVVLEALVTNIHAEYQ | failed
MAGLINKIGDALHIGGGNKEGEHKKEEEHKKHVDEHKSGEHKEGIVDKIKDKIHGGEGKSHDGEGKSHDGEKKKKKDKKEKKHHDDGHHSSSSDSDSD | failed
MAGLLSGLPMTSALVMLFLSLEQGAVFASMAVPGALAGLAAIQATYLFYFLVTRRVSAVAGCVLALALYGATAFLMNLSGSLALSILFTLLMVALIIVATSKQTPPAAAPYVALPRWVIPMRMLTATLLLLAITASATWLGPVVSGLLAPIPVIAWPLAVFVHVQGGRYELAAIIRGNAIGAVGVLSFYLTLRYSLLQWGALLSITTAVLLAVVVTAVLARLLAKR | failed
MAGQTEQVLNGVLEDIEHGRLGPGDLLEEAALTERHGVSRTPVREALIQLETQGLIRRLPRKGAVVFKPTLEEFLAILEVHARLEGQAAGLAARRMNATQAAELEAVVAACEAHARDKGDGDPFGYYRLNLRFHETVALGAGNPYLVEMIKTHARKLLAYYRARYSYPGSIPASAREHRQIATLIFDRRREEAEAAMIRHVQFDQVTVMDLLAALG | failed
